Tests used:
[1] = molecular target: high-affinity cell-surface IFN-alpha receptor of human lung carcinoma cells (human (endogenous in PC9 and other lung carcinoma cell lines)); assay: radioligand binding; several lung carcinoma cell lines (lines not named) in suspension, room temperature, 2 h, 0.1-4 nM [125I]IFN-a; non-specific binding measured with 100-fold excess of unlabelled IFN-a; Scatchard analysis
[2] = molecular target: high-affinity cell-surface IFN-alpha receptor of human lung carcinoma cells (human (endogenous in PC9 and other lung carcinoma cell lines)); assay: radioligand binding; PC9 cells in suspension (200 ul of 5 x 10^6 cells/ml) incubated at room temperature for 2 h with 0.1-4 nM [125I]IFN-a; non-specific binding measured with 100-fold excess of unlabelled IFN-a; Scatchard analysis

- Kd [1]: 0.02 to 0.1 nM
- Kd [2]: 0.042 nM
Substance: Pure recombinant human IFN-alpha, labelled with 125I (from UniProt P01563 24-188) (ligand)

— PMC2074667
